The values below come from patent US20090022728A1 (RINAT NEUROSCIENCE, published 2009).

Where two headings read alike, the source gives them in different places.

Assay [1] addresses T1, biotinylated Aβ1-40 peptide (biotinylated (N-biotinylated in Example 7)).
T1 construct: captured on streptavidin (SA) chip; also called Biotinylated Aβ peptide 1-40; Aβ1-40 on SA chip
The assay can be described thus: SPR, Fab over Aβ1-40 on SA chip. How it is done:
(§1) Affinities of 9TL Fab fragment and its variants Fab fragments were determined by Surface Plasmon Resonance (SPR) system (BIAcore 3000™, BIAcore, Inc., Piscaway, N.J.). SA chips (streptavidin) were used according to the supplier's instructions. Biotinylated Aβ peptide 1-40 was diluted into HBS-EP (10 mM HEPES pH 7.4, 150 mM NaCl, 3 mM EDTA, 0.005% P20) and injected over the chip at a concentration of 0.005 mg/mL. Using variable flow time across the individual chip channels, two ranges of antigen density were achieved: 10-200 response units (RU) for detailed kinetic studies and 500-600 RU for concentration studies and screening. […] HBS-EP buffer was used as running buffer for all the BIAcore assays. […] The concentrations of the Fab proteins were determined by ELISA and/or SDS-PAGE electrophoresis using a standard Fab of known concentration (determined by amino acid analysis). Kinetic association rates (kₒₙ) and dissociation rates (koff) were obtained simultaneously by fitting the data to a 1:1 Langmuir binding model (Karlsson, R. Roos, H. Fagerstam, L. Petersson, B. (1994). Methods Enzymology 6. 99-110) using the BIAevaluation program. Equilibrium dissociation constant (KD) values were calculated as koff/kₒₙ.
A general note: SPR reads the build-up and loss of mass on a sensor chip optically.

Assay [2] concerns the target T1, biotinylated Aβ1-40 peptide. The assay is described as follows: SPR, Fab over Aβ1-40 on SA chip. The source holds these as a separate data set.
Target sequence in this assay (peptide, as listed by the source): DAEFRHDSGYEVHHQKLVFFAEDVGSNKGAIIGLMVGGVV
The next assay has as its target T2, Aβ1-43 peptide.
T2 construct: also called 1-43 (WT)
The assay can be described thus: SPR peptide competition, Aβ1-40 on SA chip. As to the method:
(§2) To determine the epitope on Aβ polypeptide that is recognized by antibody 9TL, Surface Plasmon Resonance (SPR, Biacore 3000) binding analysis was used. Aβ₁₋₄₀ polypeptide coupled to biotin (Global Peptide Services, CO) was immobilized on a streptavidin-coated chip (SA chip). The binding of Aβ antibodies Fab fragments (at 50 nM) to the immobilized Aβ₁₋₄₀ in the absence or presence of different soluble fragments of the Aβ peptide (at […], from American Peptide Company Inc., CA). Amino acid sequences of Aβ₁₋₄₀, Aβ₁₋₄₂, and Aβ₁₋₄₃ are shown in below in Table 4. The Aβ peptides which displaced binding of antibody 9TL Fab fragment to Aβ₁₋₄₀ were Aβ₂₈₄₀, Aβ₁₋₄₀, Aβ₃₃₋₄₀, and Aβ₁₇₋₄₀, respectively (FIG. 2). Thus, antibody 9TL binds to a C-terminal peptide (33-40) of Aβ₁₋₄₀.

The target in another assay is T3, Aβ28-40 peptide.
T3 peptide: KGAIIGLMVGGVV
The assay is described as follows: SPR peptide competition, Aβ1-40 on SA chip. As to the method: as §2

A further assay concerns the target T4, Aβ28-42 peptide.
T4 peptide: KGAIIGLMVGGVVIA
The assay is described as follows: SPR peptide competition, Aβ1-40 on SA chip. How it is done:
as §2

The target of the next assay is T5, Aβ33-40 peptide.
T5 construct: also called C-terminal peptide (33-40) of Aβ1-40
T5 peptide: GLMVGGVV
The assay can be described thus: SPR peptide competition, Aβ1-40 on SA chip. How it is done: as §2

A further assay deals with T6, Aβ17-40 peptide.
T6 peptide: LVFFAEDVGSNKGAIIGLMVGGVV
The assay is described as follows: SPR peptide competition, Aβ1-40 on SA chip. How it is done: as §2

In assay [3] the target is T1, biotinylated Aβ1-40 peptide. The assay can be described thus: SPR, Fab over Aβ1-40 on SA chip; KD=koff/kon.
Assay [4] shares this target. The assay can be described thus: SPR, Fab over Aβ1-40 on SA chip; Fab fragment; Aβ1-40 immobilized on SA chip. How it is done:
as §1, with “Kinetic association rates (kₒₙ) and dissociation rates (koff) were obtained simultaneously by fitting the data to a 1:1 Langmuir binding model (Karlsson, R. Roos, H. Fagerstam, L. Petersson, B. (1994). Methods Enzymology 6. 99-110) using the BIAevaluation program.” left out
All amino acid substitutions of the variants shown in Table 3 are described relative to the sequence of 9TL. KD and other kinetic parameters were determined by BIAcore analysis described above with Aβ₁₋₄₀ immobilized on SA chip.

T2 sequence (peptide, as listed by the source): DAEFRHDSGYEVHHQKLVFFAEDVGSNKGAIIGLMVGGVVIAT

B1: 9TL Fab fragment (Fab, V domains shown)
VH: QVQLVQSGAEVKKPGASVKVSCKASGYYTEAYYIHWVRQAPGQGLEWMGRIDPATGNTKYAPRLQDRVTMTRDTSTSTVYMELSSLRSEDTAVYYCASLYSLPVYWGQGTTVTVSS
VL: DVVMTQSPLSLPVTLGQPASISCKSSQSLLYSDAKTYLNWFQQRPGQSPRRLIYQISRLDPGVPDRFSGSGSGTDFTLKISRVEAEDVGVYYCLQGTHYPVLFGQGTRLEIKR
notes: Fab from E. coli with human IgG2 CH1 (P01859) and human kappa constant domain (CAA09181)
The term Kd denotes the free concentration of one partner at which half of the binding sites on the other are occupied at equilibrium, for simple one-to-one binding. The koff is a measure of how fast the partners let go of each other. A higher koff goes with a short-lived complex. The term kon denotes the second-order rate constant of association. A higher kon goes with fast association. Turning to B1, the Kd in [1] and in [3] was 1.13 nM in each case. In addition, the off-rate constant (koff) in assay [1] and in assay [2] was 0.000359 s⁻¹ each time. In addition, the kon in assay [1] and in assay [4] was 318000 M⁻¹ s⁻¹ throughout. Further, the binding result in the assay with Aβ1-43 peptide is listed as “no binding (tested: 10 µM (FIG. 2 legend; text prints 10 pM))”; in the assay with Aβ28-40 peptide, “binds”; with Aβ28-42 peptide, “no binding (tested: 10 µM (FIG. 2 legend; text prints 10 pM))”; in the assay with Aβ33-40 peptide, “binds”; with Aβ17-40 peptide it was “binds”.
